Test results: PMC8852700, “Distinct Serotypes of Streptococcal M Proteins Mediate Fibrinogen-Dependent Platelet Activation and Proinflammatory Effects” (Infection and Immunity, 2021)

B1: human fibrinogen (natural protein)
chain 1: GPRVVERHQSACKDSDWPFCSDEDWNYKCPSGCRMKGLIDEVNQDFTNRINKLKNSLFEYQKNNKDSHSLTTNIMEILRGDFSSANNRDNTYNRVSEDLRSRIEVLKRKVIEKVQHIQLLQKNVRAQLVDMKRLEVDIDIKIRSCRGSCSRALAREVDLKDYEDQQKQLEQVIAKDLLPSRDRQHLPLIKMKPVPDLVPGNFKSQLQKVPPEWKALTDMPQMRMELERPGGNEITRGGSTSYGTGSETESPRNPSSAGSWNSGSSGPGSTGNRNPGSSGTGGTATWKPGSSGPGSTGSWNSGSSGTGSTGNQNPGSPRPGSTGTWNPGSSERGSAGHWTSESSVSGSTGQWHSESGSFRPDSPGSGNARPNNPDWGTFEEVSGNVSPGTRREYHTEKLVTSKGDKELRTGKEKVTSGSTTTTRRSCSKTVTKTVIGPDGHKEVTKEVVTSEDGSDCPEAMDLGTLSGIGTLDGFRHRHPDEAAFFDTASTGKTFPGFFSPMLGEFVSETESRGSESGIFTNTKESSSHHPGIAEFPSRGKSSSYSKQFTSSTSYNRGDSTFESKSYKMADEAGSEADHEGTHSTKRGHAKSRPVRDCDDVLQTHPSGTQSGIFNIKLPGSSKIFSVYCDQETSLGGWLLIQQRMDGSLNFNRTWQDYKRGFGSLNDEGEGEFWLGNDYLHLLTQRGSVLRVELEDWAGNEAYAEYHFRVGSEAEGYALQVSSYEGTAGDALIEGSVEEGAEYTSHNNMQFSTFDRDADQWEENCAEVYGGGWWYNNCQAANLNGIYYPGGSYDPRNNSPYEIENGVVWVSFRGADYSLRAVRMKIRPLVTQ
chain 2: GHRPLDKKREEAPSLRPAPPPISGGGYRARPAKAAATQKKVERKAPDAGGCLHADPDLGVLCPTGCQLQEALLQQERPIRNSVDELNNNVEAVSQTSSSSFQYMYLLKDLWQKRQKQVKDNENVVNEYSSELEKHQLYIDETVNSNIPTNLRVLRSILENLRSKIQKLESDVSAQMEYCRTPCTVSCNIPVVSGKECEEIIRKGGETSEMYLIQPDSSVKPYRVYCDMNTENGGWTVIQNRQDGSVDFGRKWDPYKQGFGNVATNTDGKNYCGLPGEYWLGNDKISQLTRMGPTELLIEMEDWKGDKVKAHYGGFTVQNEANKYQISVNKYRGTAGNALMDGASQLMGENRTMTIHNGMFFSTYDRDNDGWLTSDPRKQCSKEDGGGWWYNRCHAANPNGRYYWGGQYTWDMAKHGTDDGVVWMNWKGSWYSMRKMSMKIRPFFPQQ
chain 3: YVATRDNCCILDERFGSYCPTTCGIADFLSTYQTKVDKDLQSLEDILHQVENKTSEVKQLIKAIQLTYNPDESSKPNMIDAATLKSRKMLEEIMKYEASILTHDSSIRYLQEIYNSNNQKIVNLKEKVAQLEAQCQEPCKDTVQIHDITGKDCQDIANKGAKQSGLYFIKPLKANQQFLVYCEIDGSGNGWTVFQKRLDGSVDFKKNWIQYKEGFGHLSPTGTTEFWLGNEKIHLISTQSAIPYALRVELEDWNGRTSTADYAMFKVGPEADKYRLTYAYFAGGDAGDAFDGFDFGDDPSDKFFTSHNGMQFSTWDNDNDKFEGNCAEQDGSGWWMNKCHAGHLNGVYYQGGTYSKASTPNGYDNGIIWATWKTRWYSMKKTTMKIIPFNRLTIGEGQQHHLGGAKQVRPEHPAETEYDSLYPEDDL

Key:
[1] = target: M3 protein (Streptococcus pyogenes) (UniProt Q54841)
[2] = target: M3 protein (Streptococcus pyogenes) (UniProt Q54841); remark: listed apart in the source
[3] = target: M3 protein (Streptococcus pyogenes) (UniProt Q54841); remark: listed apart in the source
[4] = target: T1, M5 protein (Streptococcus pyogenes, UniProt P02977 43-461); assay: cell-based or functional assay
T1 sequence: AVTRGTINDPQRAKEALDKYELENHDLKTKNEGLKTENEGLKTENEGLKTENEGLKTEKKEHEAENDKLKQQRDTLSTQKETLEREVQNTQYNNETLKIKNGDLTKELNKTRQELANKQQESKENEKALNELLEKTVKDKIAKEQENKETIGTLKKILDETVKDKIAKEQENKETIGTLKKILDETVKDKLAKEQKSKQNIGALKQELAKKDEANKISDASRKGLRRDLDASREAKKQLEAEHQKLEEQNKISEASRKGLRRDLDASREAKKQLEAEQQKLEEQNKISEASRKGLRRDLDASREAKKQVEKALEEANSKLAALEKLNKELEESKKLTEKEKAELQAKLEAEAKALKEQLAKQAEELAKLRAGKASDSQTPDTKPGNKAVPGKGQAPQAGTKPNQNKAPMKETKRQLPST

[5] = target: T2, M1 protein (Streptococcus pyogenes, UniProt Q99XV0 1-484); assay: cell-based or functional assay
T2 sequence: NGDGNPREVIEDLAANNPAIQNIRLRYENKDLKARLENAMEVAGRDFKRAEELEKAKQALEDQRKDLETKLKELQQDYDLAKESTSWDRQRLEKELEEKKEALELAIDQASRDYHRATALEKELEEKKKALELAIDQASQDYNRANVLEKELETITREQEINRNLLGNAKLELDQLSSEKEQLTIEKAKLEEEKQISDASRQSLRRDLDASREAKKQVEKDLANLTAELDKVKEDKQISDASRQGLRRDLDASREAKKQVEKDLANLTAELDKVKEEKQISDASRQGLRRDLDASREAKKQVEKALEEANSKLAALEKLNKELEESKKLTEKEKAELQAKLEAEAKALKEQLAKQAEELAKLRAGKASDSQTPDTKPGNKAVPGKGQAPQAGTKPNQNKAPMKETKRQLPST

Molecule | platelet activation: percentage of platelets positive for CD62P, flow cytometry of platelet-rich plasma, median of 10 donors (background 3%) [1] [%] | monocyte activation: fold increase of CD11b median fluorescence intensity above background, flow cytometry of whole blood, 10 donors [2] [fold] | neutrophil activation: fold increase of CD11b median fluorescence intensity above background, flow cytometry of whole blood, 10 donors [2] [fold] | platelet-monocyte complex formation: percentage of monocytes positive for CD61, flow cytometry of whole blood, median of 10 donors (background 4%) [3] [%] | platelet-neutrophil complex formation: percentage of neutrophils positive for CD61, flow cytometry of whole blood, median of 10 donors (background 18%) [3] [%] | monocyte activation: fold increase of CD11b median fluorescence intensity above background, flow cytometry of whole blood, 10 donors [4] [fold] | neutrophil activation: fold increase of CD11b median fluorescence intensity above background, flow cytometry of whole blood, 10 donors [4] [fold] | monocyte activation: fold increase of CD11b median fluorescence intensity above background, flow cytometry of whole blood, 10 donors [5] [fold] | neutrophil activation: fold increase of CD11b median fluorescence intensity above background, flow cytometry of whole blood, 10 donors [5] [fold]
human fibrinogen (from UniProt P02671 36-866; P02675 45-491; P02679 27-453) (natural protein) | 55 | 3 | 5 | 17 | 53 |  |  |  | 
B1 |  |  |  |  |  | 4 | 9 | 7 | 14
